Measured values as given in the supplement of paper PMC10567573.
± gives the standard deviation.

Assay: protein stability index of a GFP-peptide fusion (GPS, HEK-293T) (PSI 1-6); higher = more stable
Settings: c terminus: a fixed tail appended
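Further: 24-mer peptide tiles fused after GFP, lentivirally expressed, FACS-sorted into six equal bins by GFP/DsRed ratio, decoded by Illumina sequencing, PSI is the read-weighted mean bin number.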

| Sequence | protein stability index (treatment: DMSO) | protein stability index (treatment: MLN4924 1 uM, 8 h) |
| --- | --- | --- |
| NKAAVMVHQLSKKEASRHAIMRSP [CTNNB1] | 3.86 ± 0.16 | 3.8 ± 0.2 |
| LGSPQHSPSTRGSPNRSLPSPGVL [ATF4] | 4.45 ± 0.23 | 4.45 ± 0.22 |
| ECKQLSESQVKSLCEKAKEILTKE [PPP2CA] | 4.64 ± 0.2 | 4.82 ± 0.18 |
| HRWQVDLQLGDGGGCTVGVAGEGV [TRIM15] | 3.5 ± 0.27 | 3.38 ± 0.43 |
| ASDLSSEEGWRLFKIDKEYLLKMA [SAT1] | 2.42 ± 0.17 | 2.6 ± 0.33 |
| LNWKMTLCLLVAWSIVGMAVVKGI [SLC6A17] | 2.61 ± 0.67 | 2.45 ± 0.48 |
| TDRIAAAQYSVTGSAVARAVCKAT [SNAP91] | 3.9 ± 0.24 | 3.94 ± 0.19 |
| EGHPFKAYLELEITLSQEQIQKYT [RTN1] | 2.33 ± 0.67 | 2.13 ± 0.26 |
| FDCPSELQHTQELFPQWHLPIKIA [STEAP1] | 2.78 ± 0.33 | 2.79 ± 0.38 |
| SLNMSRRDSESTRHDSETEDMLWD [PHTF1] | 5.32 ± 0.15 | 5.26 ± 0.2 |
| RFHGRLLFLKDVLGDEICCWSFYG [KCTD13] | 2.49 ± 0.38 | 2.56 ± 0.71 |
| DNDHKEAVGKMGFVVTMLKLIQKK [ZER1] | 2.21 ± 0.37 | 2.07 ± 0.34 |
| TKCEYMLNSMPKRLCLVCGDIASG [ESRRG] | 2.32 ± 0.29 | 2.13 ± 0.12 |
| TAPRTLPSCLACNRQCLCSAESMV [SPRY1] | 2.75 ± 0.34 | 2.59 ± 0.48 |
| RFTGTMDAFVKIVRHEGTRTLWSG [SLC25A39] | 2.53 ± 0.52 | 2.47 ± 0.25 |
| FPEFCSSPSPPVEVKIEEPVSMEM [INTS3] | 4.65 ± 0.32 | 4.82 ± 0.27 |
| VAKRKSSMPQKFLGDKGLSDTPYD [IKZF1] | 4.22 ± 0.1 | 4.38 ± 0.16 |
| SYAHGWMFQGWNCGDYFPDGITNG [CPN1] | 2.35 ± 0.18 | 2.27 ± 0.17 |
| MLLDIKTRLEQEIATYRSLLEGQD [KRT15] | 2.9 ± 0.34 | 3.07 ± 0.34 |
| PSVEQAADSLDFDETFLATSFLQH [FOXJ1] | 4.43 ± 0.18 | 4.41 ± 0.4 |
| REALVLRSVRVRLLLSFWKETDPL [PLD5] | 2.58 ± 1.1 | 2.38 ± 0.39 |
| ETFIVPDSFLVALDMDDGTLSFIV [SPSB1] | 2.66 ± 0.33 | 2.58 ± 0.54 |
| NHAIDIICGFLKERCFRGSSYPVC [OAS1] | 2.88 ± 0.38 | 2.6 ± 0.44 |

| Sequence | protein stability index (treatment: DMSO) | protein stability index (treatment: MLN4924 1 uM, 8 h) |
| --- | --- | --- |
| FSDDEEDLNSKGKKREFRFHPIKE [INTS3] | 3.48 ± 0.68 | 4.04 ± 0.71 |
| IANPNSLNHVKSMWYPEIKHFCPR [RHOBTB1] | 2.22 ± 0.13 | 2.4 ± 0.26 |
| ERQCALRVFKARIYTNRYETNEED [FBXO39] | 3.54 ± 0.36 | 3.61 ± 0.41 |
| TAWTEACQVEVRLLLAYNSSARIP [INTS4] | 3.03 ± 0.4 | 2.43 ± 0.49 |
| QRGRVISLWERLEFVNGWYILLVT [MCOLN1] | 2.79 ± 0.68 | 2.67 ± 0.65 |
| FFTLDLEHIADALRAIDFGTDEEE [TRIM63] | 3.9 ± 0.63 | 4.27 ± 0.26 |
| ACGSSSYVASIVDGGESRSEKGDS [RBMY1A1] | 5.22 ± 0.31 | 5.16 ± 0.35 |
| KCLYYLYATLDLNAVKYVSNIKFC [PDS5B] | 3.06 ± 0.41 | 2.75 ± 0.78 |
| PAFIIVKLSPLRDRLVVTECQLTH [ZSWIM9] | 3.33 ± 0.57 | 3.02 ± 0.54 |
| MPSPCSCMSFNPETRRLSIGLDNG [WDFY2] | 3.19 ± 0.13 | 3.29 ± 0.25 |
| SSEVGPFVSKIRAVINDIANLPVP [AUH] | 2.64 ± 0.25 | 2.62 ± 0.42 |
| SSGNTVLLLILCMQHSFPEPGRLY [TMEM192] | 3.1 ± 0.73 | 3.09 ± 0.53 |
| RKDTKEIYTHFTCATDTKNVQFVF [GNAI1] | 2.49 ± 1 | 2.64 ± 0.43 |
| DVLLTLKHTVKEHECKLTQEILEL [IQUB] | 2.12 ± 0.2 | 1.96 ± 0.47 |
| YGLQGGMAFLDKRLQVKEHQHEEI [ATL3] | 3.06 ± 0.51 | 3.39 ± 0.65 |
| EVANFYYEADCLAAAYGGKAAPAA [CEBPB] | 2.91 ± 0.38 | 2.83 ± 0.38 |
| YIVAGSARQHALYIWEKSIGNLVK [RBBP5] | 2.22 ± 0.25 | 2.14 ± 0.47 |
| EVLIGAGYSTPADIWSTACMAFEL [SRPK2] | 3.14 ± 1.2 | 2.61 ± 0.88 |
| ASSLPAEVHSLTLSPPEQAAQPMQ [PLAGL1] | 5.07 ± 0.12 | 4.89 ± 0.26 |
| GDESSLLLNAASTVARPVFTEYQA [RHOBTB3] | 3.57 ± 0.29 | 3.52 ± 0.29 |
| HDESPGNNVVDISVPPTTDGQKPN [RAB11B] | 5.46 ± 0.3 | 5.57 ± 0.12 |
| SDDAAAPALETQPQGDEEDIASRY [SMOC2] | 5.62 ± 0.18 | 5.47 ± 0.11 |
| YLLMVTVILLPYVSKVTGWCRDRL [TMEM175] | 3.27 ± 0.62 | 3.22 ± 0.66 |

| Sequence | protein stability index (treatment: DMSO) | protein stability index (treatment: MLN4924 1 uM, 8 h) |
| --- | --- | --- |
| GPPPAQGSPGDGGLQDQVGAWGLP [EMID1] | 5.02 ± 0.12 | 5.03 ± 0.4 |
| VELIPEKKGLFLKHVEYEVSSQRF [SNX8] | 2.31 ± 0.27 | 2.46 ± 0.19 |
| PAHKNLNKQAYDLAKALLKRTAQA [PDS5B] | 2.22 ± 0.16 | 2.51 ± 0.18 |
| LLDFMCRIIPNFYPPLEGHVRQGV [INTS3] | 3.31 ± 0.42 | 2.84 ± 0.41 |
| WGRLLEQVGTMALWASQREKEVLR [ZBED2] | 2.18 ± 0.16 | 2.36 ± 0.23 |
| PLTGDKDDEEVDTHFASQEFFSAN [ADAMTSL2] | 5.37 ± 0.11 | 5.45 ± 0.19 |
| INQEELRALEEVEMKLQKNFLTQR [C10orf62] | 3.66 ± 0.39 | 3.83 ± 0.34 |
| WGLDQEQVFSLGDGVSGGFFGIRD [ZBED1] | 2.91 ± 0.6 | 3.17 ± 0.3 |
| LSGVEEELQRTKQEVLSLRRENST [SASS6] | 5.07 ± 0.22 | 5 ± 0.21 |
| PRGSHSSALERLETKLHLLRQEMV [LURAP1L] | 2.53 ± 0.33 | 2.69 ± 0.27 |
| GKVIVWDSFTTNKEHAVTMPCTWV [GNB5] | 2.55 ± 0.37 | 2.27 ± 0.36 |
| LSNLVQHILKKYYGNGMRKSPEMP [RTP4] | 2.43 ± 0.35 | 2.28 ± 0.11 |
| KQNEKLNNQEEETEFKELDGLREA [CCDC89] | 5.51 ± 0.28 | 5.54 ± 0.3 |
| SSSFSNLDLSEEDSDDPSVTLELS [VDR] | 5.35 ± 0.23 | 5.16 ± 0.28 |
| SLGAVGEGFHNYHHSFPYDYSASE [SCD] | 3.81 ± 0.24 | 3.88 ± 0.28 |
| AARALDKNKIPYKGFIPEDLEAFI [FEM1A] | 2.96 ± 0.29 | 3.42 ± 0.41 |
| GFSPSYEFFAVTRFLVGMMNGGMS [SLC22A15] | 2.54 ± 1.2 | 2.28 ± 0.4 |
| NCPEFPPPDRTLGCWATDAAPAAG [RSPH3] | 4.4 ± 0.4 | 4.47 ± 0.3 |
| RHSNVVILTTSNITEKIDVAFVDR [TRIP13] | 2.34 ± 0.29 | 2.14 ± 0.16 |
| RAVDWWALGILIFEMLSGFPPFFD [PRKX] | 2.99 ± 0.42 | 2.78 ± 0.57 |
| KQLLDSKIGFEIGIENEEDTSKQK [ZNF449] | 5.3 ± 0.27 | 5.26 ± 0.3 |
| VPGEFKQDVTVVGSAGRLLAVGTD [GFOD1] | 4.1 ± 0.29 | 3.69 ± 0.17 |
| HIRHLGWNPDARYSEHFLQEAKLL [GLT8D2] | 2.49 ± 0.17 | 2.79 ± 0.4 |

| Sequence | protein stability index (treatment: DMSO) | protein stability index (treatment: MLN4924 1 uM, 8 h) |
| --- | --- | --- |
| SREKTACAINKVGVSFSTVENELM [FAM98B] | 3.35 ± 0.28 | 3.63 ± 0.5 |
| VERYHNLCQKQVKAQLPRRESERR [FBXO28] | 4.08 ± 0.31 | 3.99 ± 0.08 |
| HENAVQGSAVEVQTYQPPWKALSE [ISL2] | 4.15 ± 0.23 | 4.02 ± 0.17 |
| MEDKEMTGPQLPESLEDVAMYISQ [ZNF263] | 4.73 ± 0.23 | 4.78 ± 0.2 |
| GCLLDDGLEGLFEDIDTSMYDNEL [SERTAD1] | 4.28 ± 0.48 | 4.32 ± 0.42 |
| KSSILTRAGEQRKRSQSMKSYPSS [CLCN6] | 4.46 ± 0.25 | 4.6 ± 0.18 |
| TFVSTCQAIDATVAAELLNHLLES [HES6] | 2.48 ± 0.35 | 2.48 ± 0.32 |
| RIFRLPNNWYYISPRLTFQCLEDL [SLA] | 2.53 ± 0.28 | 2.38 ± 0.39 |
| QEKKLSFIEALIQQYQEQLDKSTK [TRIM63] | 2.82 ± 0.19 | 3.11 ± 0.5 |
| TAIFYTLMTCEMLNRRNGSLRIAL [EDNRA] | 2.85 ± 0.21 | 3.15 ± 0.42 |
| VEYKDIASIHWDWKIALLFVAFAL [SLC35F2] | 2.81 ± 0.8 | 2.74 ± 0.32 |
| CPCCFGRDCLVLNQGYLSEAGASL [PI4K2A] | 2.44 ± 0.2 | 2.62 ± 0.49 |
| AKAELPKYKSFNRTAMPYGGYEKA [MYOZ1] | 3.22 ± 0.23 | 3.41 ± 0.24 |
| LTELVQRRITYLQNPKDCSKAKKL [FUT8] | 3.99 ± 0.35 | 4.08 ± 0.24 |
| SKLASMSNDFKSVLEVRTENLKQQ [STX5] | 4.04 ± 0.28 | 4.21 ± 0.32 |
| QDFPVKKRKKLSTWKQELLKLMDR [ZNF75A] | 2.5 ± 0.11 | 2.53 ± 0.17 |
| FAAPSPATTASPAKVDSSGVIDLF [SNAP91] | 2.93 ± 0.38 | 3.25 ± 0.52 |
| VTVTDVDIVFSKIKGKSCRTITFE [TPPP] | 2.23 ± 0.24 | 2.1 ± 0.28 |
| MVGPLAQDPQSPMAGLRWLDSWDF [POMT2] | 2.66 ± 0.42 | 2.75 ± 0.41 |
| PAISITENVLHFKAQGHGAKGDNV [HACD3] | 4.54 ± 0.095 | 4.57 ± 0.37 |
